Laboratory results: patent US20210324111A1 (UCB, published 2021)

Target: T1, Human serum albumin (human, UniProt P02768 25-609)
T1 construct: Bought purified protein, injected as the analyte in SPR; also called HSA; Human albumin, ChromPure (Jackson ImmunoResearch)
Test: SPR (Biacore), antibody captured on the chip, HSA as analyte, 25 C, 1:1 model

Row | Kd [nM] | koff [s⁻¹] | kon [M⁻¹ s⁻¹] | Binder
1 | 1.61 | 0.00025 | 156000 | 645gL4gH5 Fab-A26 BYbe wt (bispecific antibody, part only; not given: A26 dsscFv, linker, CH1, CL, V domains shown, not shown: another chain or arm of the molecule; a dimerising Fc or GST; small tags and cut ends) VH: EVQLLESGGGLVQPGGSLRLSCAVSGIDLSNYAINWVRQAPGKQLEWIGIIWASGTTFYATWAKGRFTISRDNSKNTVYLQMNSLRAEDTAVYYCARTVPGYSTAPYFDLWGQGTLVTVSS VL: DIQMTQSPSSVSASVGDRVTITCQSSPSVWSNFLSWYQQKPGKAPKLLIYEASKLTSGVPSRFSGSGSGTDFTLTISSLQPEDFATYYCGGGYSSISDTTFGGGTKVEIK
2 | 4.74 | 0.000651 | 137000 | 645CDR-2109FW Fab-A26 ds HL BYbe (bispecific antibody, part only; not given: A26 dsscFv, linker, CH1, CL, V domains shown, not shown: another chain or arm of the molecule; a dimerising Fc or GST; small tags and cut ends) VH: EVQLVESGGGLVKPGGSLRLSCAASGIDLSNYAINWVRQAPGKGLEWIGIIWASGTTFYATWAKGRFTISVDKAKNSAYLQMNSLRAEDTAVYYCTRTVPGYSTAPYFDLWGQGTLVTVSS VL: DIQMTQSPSSLSASVGDRVTITCQSSPSVWSNFLSWYQQKPGKVPKLLIYEASKLTSGVPSRFSGTGSGTDYTLTISSLQPEDVATYFCGGGYSSISDTTFGQGTKLEIK

Second part, the binder before the results:

Row | Binder | Kd [nM] | koff [s⁻¹] | kon [M⁻¹ s⁻¹]
3 | 645CDR-497FW Fab nh (Fab, V domains shown, also called 497FW/645CDR Fab nh; 645CDR -497FW/645CDR Fab nh) VH: EVQLVESGGGLVKPGGSLRLSCAASGIDLSNYAINWVRQAPGKGLEWVGIIWASGTTFYATWAKGRFTISRDDSKNTLYLQMNSLKTEDTAVYYCTTTVPGYSTAPYFDLWGQGTLVTVSS VL: AIQLTQSPSSLSASVGDRVTITCQSSPSVWSNFLSWYQQKPGKAPKLLIYEASKLTSGVPSRFSGSGSGTDFTLTISSLQPEDFATYYCGGGYSSISDTTFGQGTKVEIK | 4.63 | 0.000601 | 130000
4 | 645CDR-2109FW Fab nh (Fab, V domains shown, also called 2109FW/645CDR Fab nh; #3) VH: EVQLVESGGGLVKPGGSLRLSCAASGIDLSNYAINWVRQAPGKGLEWIGIIWASGTTFYATWAKGRFTISVDKAKNSAYLQMNSLRAEDTAVYYCTRTVPGYSTAPYFDLWGQGTLVTVSS VL: DIQMTQSPSSLSASVGDRVTITCQSSPSVWSNFLSWYQQKPGKVPKLLIYEASKLTSGVPSRFSGTGSGTDYTLTISSLQPEDVATYFCGGGYSSISDTTFGQGTKLEIK | 1.52 | 0.000227 | 150000
5 | 645CDR-497FW Fab-A26 ds HL BYbe (bispecific antibody, part only; not given: A26 dsscFv, linker, CH1, CL, V domains shown, not shown: another chain or arm of the molecule; a dimerising Fc or GST; small tags and cut ends) VH: EVQLVESGGGLVKPGGSLRLSCAASGIDLSNYAINWVRQAPGKGLEWVGIIWASGTTFYATWAKGRFTISRDDSKNTLYLQMNSLKTEDTAVYYCTTTVPGYSTAPYFDLWGQGTLVTVSS VL: AIQLTQSPSSLSASVGDRVTITCQSSPSVWSNFLSWYQQKPGKAPKLLIYEASKLTSGVPSRFSGSGSGTDFTLTISSLQPEDFATYYCGGGYSSISDTTFGQGTKVEIK | 1.23 | 0.000186 | 151000
